For two molecules, Kd results are on record in publication PMC11094138 (2024).

The target in the assay is WDR5^22–334 (human, UniProt P61964 22-334). Description: ITC.

Broadly, the Kd is the free concentration of one partner at which half of the binding sites on the other are occupied at equilibrium, for simple one-to-one binding. The low end stands for tighter binding, the high end for weaker binding. The molecule GSRRAEVHLRK [MLL1^3762–3772_A3764R] returned a Kd of 2000 nM. This lies in the single-digit micromolar range.
Next, GSARAEVHLRK [MLL1 WIN motif MLL1^3762–3772]: 1800 nM.
